These results are taken from patent US20250163183A1 (COAGULANT THERAPEUTICS, published 2025).

Where “and” joins values, the source holds several entries; their conditions need not be identical. Identical values can stand only once.

Assay [1] deals with T1, human activated protein C (APC) (human, UniProt P04070 43-461).
T1 construct: Bought (Haematologic Technologies; plasma-derived from Enzyme Research Laboratories); Two-chain disulfide-linked protease
As to the kind of experiment: BLI (Octet): nanobody captured on anti-V5 sensor, dipped in 500 nM APC; buffer sensor reads 0.06.

Assay [2] has as its target T1, human activated protein C (APC). Briefly: cell-based or functional assay.
Assay [3] deals with T2, human protein C (PC) zymogen (human, UniProt P04070 43-197; P04070 200-461).
T2 construct: Bought
T2 sequence (P04070 43-197, chain 1 of 2): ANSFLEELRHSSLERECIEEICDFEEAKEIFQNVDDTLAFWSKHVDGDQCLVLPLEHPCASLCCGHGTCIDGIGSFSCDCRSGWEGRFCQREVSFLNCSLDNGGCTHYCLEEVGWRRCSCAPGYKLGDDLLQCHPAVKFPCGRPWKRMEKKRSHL
T2 sequence (P04070 200-461, chain 2 of 2): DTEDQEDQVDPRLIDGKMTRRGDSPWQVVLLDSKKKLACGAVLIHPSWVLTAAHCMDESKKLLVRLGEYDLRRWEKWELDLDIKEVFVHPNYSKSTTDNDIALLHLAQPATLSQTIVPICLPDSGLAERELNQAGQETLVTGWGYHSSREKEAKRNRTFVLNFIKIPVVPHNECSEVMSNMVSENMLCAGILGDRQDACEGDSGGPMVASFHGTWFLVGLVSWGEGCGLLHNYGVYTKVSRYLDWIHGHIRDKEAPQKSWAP
As to the kind of experiment: ELISA screen, PC-coated wells, OD450, n=2 [Continued].

The target in assay [4] is T3, FVIIa (UniProt P08709 61-466).
T3 construct: also called factor VIIa
T3 sequence (looked up): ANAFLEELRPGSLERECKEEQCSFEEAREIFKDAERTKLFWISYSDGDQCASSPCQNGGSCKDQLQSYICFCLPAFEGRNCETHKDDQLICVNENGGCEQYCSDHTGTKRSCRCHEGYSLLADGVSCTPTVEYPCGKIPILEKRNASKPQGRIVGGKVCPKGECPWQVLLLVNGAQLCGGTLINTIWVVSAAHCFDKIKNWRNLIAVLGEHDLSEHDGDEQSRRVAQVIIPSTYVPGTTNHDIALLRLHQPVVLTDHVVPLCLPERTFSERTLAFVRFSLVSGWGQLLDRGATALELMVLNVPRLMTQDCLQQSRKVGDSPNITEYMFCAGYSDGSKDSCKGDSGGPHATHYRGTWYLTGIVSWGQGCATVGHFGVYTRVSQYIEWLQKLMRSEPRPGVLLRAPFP
As to the kind of experiment: ELISA, FVIIa coated at 10 µg/mL, HRP-anti-V5, n=3.

The target in assay [5] is T4, FXIa (UniProt P03951 19-625).
T4 construct: also called factor XIa
T4 sequence (P03951 19-625 limits assumed): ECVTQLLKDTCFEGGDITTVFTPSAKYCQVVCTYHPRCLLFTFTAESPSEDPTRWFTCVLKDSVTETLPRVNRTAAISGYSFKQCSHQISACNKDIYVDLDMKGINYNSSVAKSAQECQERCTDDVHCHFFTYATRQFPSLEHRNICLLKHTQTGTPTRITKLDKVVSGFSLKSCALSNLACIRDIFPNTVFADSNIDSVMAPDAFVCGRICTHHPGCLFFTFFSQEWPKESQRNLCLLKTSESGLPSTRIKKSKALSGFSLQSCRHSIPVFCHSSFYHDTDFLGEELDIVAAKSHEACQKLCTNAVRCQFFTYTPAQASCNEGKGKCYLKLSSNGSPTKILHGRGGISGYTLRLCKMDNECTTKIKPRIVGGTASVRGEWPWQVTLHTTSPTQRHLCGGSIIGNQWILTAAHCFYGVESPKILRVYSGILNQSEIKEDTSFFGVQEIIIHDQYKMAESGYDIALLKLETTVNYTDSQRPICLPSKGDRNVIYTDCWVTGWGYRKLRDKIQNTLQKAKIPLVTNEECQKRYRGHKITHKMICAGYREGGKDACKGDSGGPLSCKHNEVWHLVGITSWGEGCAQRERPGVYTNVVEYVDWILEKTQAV
As to the kind of experiment: ELISA, FXIa coated at 10 µg/mL, HRP-anti-V5, n=3.

Assay [6] addresses T1, human activated protein C (APC). Briefly: BLI, VHH captured via anti-V5, APC in solution.
Assay [7] has the same target. As to the kind of experiment: cell-based or functional assay. The source holds these as a separate data set.
The target in assay [8] is T2, human protein C (PC) zymogen. As to the kind of experiment: ELISA screen, PC-coated wells, OD450, n=2.
Assay [9] has the same target. Briefly: ELISA.

T1 sequence (P04070 other isoform, or with tags, fused parts or gaps): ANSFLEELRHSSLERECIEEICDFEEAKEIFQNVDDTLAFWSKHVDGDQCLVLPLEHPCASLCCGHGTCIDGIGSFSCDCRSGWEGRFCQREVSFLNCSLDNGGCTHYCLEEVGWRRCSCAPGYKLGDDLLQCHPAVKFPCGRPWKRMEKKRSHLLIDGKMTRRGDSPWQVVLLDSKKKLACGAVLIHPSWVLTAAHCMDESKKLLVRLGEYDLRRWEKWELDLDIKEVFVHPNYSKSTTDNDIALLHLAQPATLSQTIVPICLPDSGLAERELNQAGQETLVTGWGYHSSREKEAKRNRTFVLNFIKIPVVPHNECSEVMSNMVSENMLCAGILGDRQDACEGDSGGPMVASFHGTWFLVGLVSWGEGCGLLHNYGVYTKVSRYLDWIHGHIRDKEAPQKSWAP

B1: LP4 (SR16983-R3-P2-A06) (VHH, not shown: small tags and cut ends)
VHH: QLQLVESGGGLVQAGGSLRLSCAASGSTFNFRIMGWYRQVPGKQRELVAVINSGGSADYTEDVKGRFTISRDDAKSTMYLQMNSLKPEDTAVYYCHAKKVEPTLFTTTYWGQGTQVTVSS
notes: Llama VHH purified from E. coli periplasm
On to B1, for which the “APC binding (nm)” value in assay [1] is 0.33 nm. Also, the “APC plasma T1/2 (min; mean)” value in assay [2] was determined as 33 min. For the same molecule, the binding result in [3] was “no binding”. Besides, in assay [4], the binding result was “no binding (tested: 2 µg/mL)”. In addition, in [5], the binding result is reported as “no binding (tested: 2 µg/mL)”. In assay [6], the Kd amounted to 4.4 nM, the koff came out at 0.0027 s⁻¹ and the kon turned out to be 550000 M⁻¹ s⁻¹.

B2: LP17 (SR16983-R4-P1-A09) (VHH, not shown: small tags and cut ends)
VHH: QLQLVESGGGLVQPGGSLRLSCAASGTTSSLNLMGWYRQAPGKKRESVAHMTSDGRTDYVDSVKGRFTISRDNSKNTVYLQMNNLKPEDTAVYICYANPFLGSWSNYWGQGTQVTVSS
notes: as for B1
Regarding B2, the binding result in assay [4] and in assay [5] was “no binding (tested: 2 µg/mL)” each time.

B3: LP19 (SR16983-R4-P1-B06) (VHH, not shown: small tags and cut ends)
VHH: QLQLVESGGGEVQAGESLRLSCAASGSTFSINVFAWYRDYPGKQRELVAVIGRSGTPRYADSVKGRFTISRDNAKNTVYLQMNSLEPEDTAVYYCHLGDTWGQGTQVTVSS
notes: as for B1
Turning to B3, the “APC-mediated histone H3 cleavage, 500 nM nanobody” value (“APC-mediated histone H3 cleavage” for short) in assay [7] was below 75 % residual activity. Moreover, the “APC binding (nm)” value in assay [1] came out at 0.31 nm. The binding result in assay [8] is “no binding”. In addition, the binding result in assay [4] was “no binding (tested: 2 µg/mL)”. In assay [5], the binding result is reported as “no binding (tested: 2 µg/mL)”. Also, in assay [6], the Kd stood at 6.1 nM, the dissociation rate constant (koff) is 0.0025 s⁻¹ and the kon came to 410000 M⁻¹ s⁻¹.

B4: LP13 (SR16983-R3-P3-G08) (VHH, not shown: small tags and cut ends)
VHH: QLQLVESGGGLVQAGGSLRLSCVASGTTFTIEDIGWHRQAPGKQLELVAVSRGGGNADYSDSVKGRFTISRDNAKTTVYLQMSSLKPEDTAVYYCIAKTKATTKWGRGIQVTVSS
notes: as for B1
For B4, the “APC-mediated histone H3 cleavage” value in [7] was below 75 % residual activity. In [1], the “APC binding (nm)” value stood at 0.32 nm. Besides, the “APC plasma T1/2 (min; mean)” value in assay [2] was found to be 67.1 min. The binding result in assay [3] was “no binding”; in assay [4] it was “no binding (tested: 2 µg/mL)”; in [5], “no binding (tested: 2 µg/mL)”. Also, binding in [6] was put at a Kd of 1.2 nM. The molecule further registered a koff in assay [6] of 0.00041 s⁻¹. For the same molecule, the kon in assay [6] amounted to 350000 M⁻¹ s⁻¹.

B5: LP1 (SR16983-R2-P3-D06) (VHH, not shown: small tags and cut ends)
VHH: QLQLVESGGGLVQAGGSLRLSCAASGSTFPINVFAWYRQAPGEQRELGELVAFIGRSGTTNYGDSVKGRFTISRDNAKNTVYLQMDSLRPEDTAVYYCNLGDYWGQGTQVTVSS
notes: as for B1
Turning to B5, the “APC-mediated histone H3 cleavage” value in assay [7] is below 75 % residual activity. Further, in [1], the “APC binding (nm)” value was determined as 0.32 nm. For the same molecule, in assay [6], the Kd stood at 15 nM, the koff was determined as 0.009 s⁻¹ and the on-rate (kon) was determined as 590000 M⁻¹ s⁻¹.

B6: LP6 (SR16983-R3-P2-F11) (VHH, not shown: small tags and cut ends)
VHH: QLQLVESGGGLVQPGGSLRLSCAASGSIGRLNVMGWFRQAPGKQRELVAVISSDNKKDYADSVQGRFTISRDNSKNTVYLQMNSLKPEDTAVYYCNVRWTMGGNYWGQGTQVTVSS
notes: as for B1
In the case of B6, the binding result in [4] and in [5] was “no binding (tested: 2 µg/mL)” throughout.

B7: LP14 (SR16983-R3-P4-A06) (VHH, not shown: small tags and cut ends)
VHH: QLQLVESGGGLVQAGGSLRLSCTASGSTSSIVIISWYRQAPGEQRDLVATINNGGDVDVADFVKGRFTISRDNAKNAVYLQMNNLKPEDTAVYYCSARTPSLRVTWFWGQGTQVTVSS
notes: as for B1
For B7, the binding result in assay [4] and in assay [5] was “no binding (tested: 2 µg/mL)” in each case.

B8: LP16 (SR16983-R4-P1-A04) (VHH, not shown: small tags and cut ends)
VHH: QLQLVESGGGLVEAGGSLRLSCAVSGTTFSANTMVWHRQAPGKQREWVARISSSGTTNYADSVRGRFSLSRGNAKNTVYLQMNSLKPDDTAVYYCNAILPSRSIWGRGTQVTVSS
notes: as for B1
Consider B8, for which the binding result in assay [4] and in assay [5] was “no binding (tested: 2 µg/mL)” throughout.

B9: LP5 (SR16983-R3-P2-F04) (VHH, not shown: small tags and cut ends)
VHH: QVQLVESGGGLVQHGGSLRLSCAVSGSIFTTATMAWYRQAPGKQRDWVAVITTGGSTRYADDVKGRFAISRDNAKNTVYLQMNNLKPEDTAVYYCNAATRLSSTNYWGQGTQVSVSS
notes: as for B1
With B9, the binding result in assay [4] and in assay [5] was “no binding (tested: 2 µg/mL)” throughout.

B10: LP11 (SR16983-R3-P3-F03) (VHH, not shown: small tags and cut ends)
VHH: QLQLVESGGGLAQAGGSLRLSCAASGRTFVGSYVMGWFRQAPGKEREFVAASSRSTGNTVYLDSVKGRFTISRDDAKNTLFLQMNRLKPEDTAVYYCATRASVNYNYAAWPYWGQGTQVTVSS
notes: Llama VHH purified from E. coli periplasm; also made in CHO cells for the endothelial barrier assay
Take B10: in [7], the “Protac-APTT clotting time, 300 nM nanobody” value was above 90%; the “R46/R41 cleavage ratio of PAR1 by APC” value was > 1 ratio and ≤ 2.5 fold. Besides, the “APC binding (nm)” value in assay [1] was 0.3 nm. In assay [2], the “APC plasma T1/2 (min; mean)” value was 25 min. Besides, in [3], the binding result is “no binding”. Moreover, the binding result in [4] is listed as “no binding (tested: 2 µg/mL)”. Besides, the binding result in assay [5] is “no binding (tested: 2 µg/mL)”. Moreover, in [6], the Kd was found to be 2.1 nM, the koff was 0.00069 s⁻¹ and the kon is 330000 M⁻¹ s⁻¹.

B11: LP3 (SR16983-R2-P4-E09) (VHH, not shown: small tags and cut ends)
VHH: QVQLVESGGGLVQPGGSLTLSCAASGTIESINDMGWYRQAPGKQRELVAAITSGGSTNYADSVKGRFTISRDNAKNTVYLQMNSLKPEDTAVYYCNAEVKRHYYYDSAGYRYWGQGTQVTVSS
notes: as for B1
B11: the “APC binding (nm)” value in assay [1] came out at 0.29 nm. The “APC plasma T1/2 (min; mean)” value in [2] is 28.8 min. Also, the binding result in [3] is on record as “no binding”. Further, the binding result in [4] is “no binding (tested: 2 µg/mL)”. Further, in assay [5], the binding result is recorded as “no binding (tested: 2 µg/mL)”. For the same molecule, in [6], the Kd worked out at 8.8 nM, the koff is 0.0016 s⁻¹ and the kon amounted to 180000 M⁻¹ s⁻¹.

B12: LP15 (SR16983-R3-P5-H05) (VHH, not shown: small tags and cut ends)
VHH: QLQLVESGGGLVQAGGSLRLSCAASGTTFSFVYMGWYRQAPGNQRDLVARISSDGSTNYADSVKGRFTISGDNAKNTVYLQMNSLKPEDTARYYCFWNGHTNKWGQGTQVTVSS
notes: as for B1
For the molecule B12, the “APC binding (nm)” value in assay [1] was 0.31 nm. Besides, the “APC plasma T1/2 (min; mean)” value in assay [2] worked out at 36.4 min. Also, the results for the binding result in assay [4], in assay [5] and in [9] were “no binding (tested: 2 µg/mL)”, “no binding (tested: 2 µg/mL)” and “no binding”, respectively. In assay [6], this molecule came in with a Kd of 16 nM. For the same molecule, in [6], the koff turned out to be 0.0066 s⁻¹. Further, in assay [6], the kon was found to be 400000 M⁻¹ s⁻¹.

B13: LP21 (SR16983-R4-P1-D01) (VHH, not shown: small tags and cut ends)
VHH: QLQLVESGGGLVQAGESLRLSCVLSGSTFGRNVITWYRQPPGKQREFIAMITTSGSTRYADSVKGRFTMSRDTAKNTAFLQMSNLKLEDTAVYYCWTAIAGQGEYWGQGTQVTVSS
notes: as for B1
With B13, the binding result in assay [4] and in assay [5] was “no binding (tested: 2 µg/mL)” throughout.

B14: LP20 (SR16983-R4-P1-B07) (VHH, not shown: small tags and cut ends)
VHH: QLQLVESGGGLVQAGGSLRLSCTASGSTVRVTAGGWYRQTPGNERELVADIDNGGSTTYADSVKGRFTISRDNAKNAVDLQMNSLKPEDTAVYRCFVIAIPDSAPRPRAYWGQGTEVTVSS
notes: as for B1
With B14, the “Protac-APTT clotting time, 300 nM nanobody” value in assay [7] was above 90%. Also, in [1], the “APC binding (nm)” value came to 0.3 nm. Further, the “APC plasma T1/2 (min; mean)” value in [2] was 85.6 min. In [3], the binding result was “no binding”. The binding result in [4] is “no binding (tested: 2 µg/mL)”. The binding result in [5] was “no binding (tested: 2 µg/mL)”. In addition, in assay [6], the Kd came out at 1.9 nM, the koff was 0.0007 s⁻¹ and the kon turned out to be 380000 M⁻¹ s⁻¹.
